Assay results: patent US20200297818A1 (ZEALAND PHARMA A S, published 2020)
Changes are numbered by the printed parent chain.

B1: Compound 24 (peptide)
peptide: HXEGSFTSELATILDXQAARDFIAWLIEHKITD
HELM: PEPTIDE1{H.[Aib].E.G.S.F.T.S.E.L.A.T.I.L.D.K.Q.A.A.R.D.F.I.A.W.L.I.E.H.K.I.T.D}|PEPTIDE2{[O=C(O)CCCCCCCCCCCCCCCCC(=O)[*:2]].[gGlu]}$PEPTIDE1,PEPTIDE2,16:R3-2:R2$$$V2.0
SMILES: CC[C@H](C)[C@H](NC(=O)[C@H](Cc1ccccc1)NC(=O)[C@H](CC(=O)O)NC(=O)[C@H](CCCNC(=N)N)NC(=O)[C@H](C)NC(=O)[C@H](C)NC(=O)[C@H](CCC(N)=O)NC(=O)[C@H](CCCCNC(=O)CC[C@H](NC(=O)CCCCCCCCCCCCCCCCC(=O)O)C(=O)O)NC(=O)[C@H](CC(=O)O)NC(=O)[C@H](CC(C)C)NC(=O)[C@@H](NC(=O)[C@@H](NC(=O)[C@H](C)NC(=O)[C@H](CC(C)C)NC(=O)[C@H](CCC(=O)O)NC(=O)[C@H](CO)NC(=O)[C@@H](NC(=O)[C@H](Cc1ccccc1)NC(=O)[C@H](CO)NC(=O)CNC(=O)[C@H](CCC(=O)O)NC(=O)C(C)(C)NC(=O)[C@@H](N)Cc1c[nH]cn1)[C@@H](C)O)[C@@H](C)O)[C@@H](C)CC)C(=O)N[C@@H](C)C(=O)N[C@@H](Cc1c[nH]c2ccccc12)C(=O)N[C@@H](CC(C)C)C(=O)N[C@H](C(=O)N[C@@H](CCC(=O)O)C(=O)N[C@@H](Cc1c[nH]cn1)C(=O)N[C@@H](CCCCN)C(=O)N[C@H](C(=O)N[C@H](C(=O)N[C@@H](CC(=O)O)C(=O)O)[C@@H](C)O)[C@@H](C)CC)[C@@H](C)CC
B2: Compound 29 (peptide)
peptide: B1 peptide with E28K
HELM: PEPTIDE1{H.[Aib].E.G.S.F.T.S.E.L.A.T.I.L.D.K.Q.A.A.R.D.F.I.A.W.L.I.K.H.K.I.T.D}|PEPTIDE2{[O=C(O)CCCCCCCCCCCCCCCCC(=O)[*:2]].[gGlu]}$PEPTIDE1,PEPTIDE2,16:R3-2:R2$$$V2.0
SMILES: CC[C@H](C)[C@H](NC(=O)[C@H](Cc1ccccc1)NC(=O)[C@H](CC(=O)O)NC(=O)[C@H](CCCNC(=N)N)NC(=O)[C@H](C)NC(=O)[C@H](C)NC(=O)[C@H](CCC(N)=O)NC(=O)[C@H](CCCCNC(=O)CC[C@H](NC(=O)CCCCCCCCCCCCCCCCC(=O)O)C(=O)O)NC(=O)[C@H](CC(=O)O)NC(=O)[C@H](CC(C)C)NC(=O)[C@@H](NC(=O)[C@@H](NC(=O)[C@H](C)NC(=O)[C@H](CC(C)C)NC(=O)[C@H](CCC(=O)O)NC(=O)[C@H](CO)NC(=O)[C@@H](NC(=O)[C@H](Cc1ccccc1)NC(=O)[C@H](CO)NC(=O)CNC(=O)[C@H](CCC(=O)O)NC(=O)C(C)(C)NC(=O)[C@@H](N)Cc1c[nH]cn1)[C@@H](C)O)[C@@H](C)O)[C@@H](C)CC)C(=O)N[C@@H](C)C(=O)N[C@@H](Cc1c[nH]c2ccccc12)C(=O)N[C@@H](CC(C)C)C(=O)N[C@H](C(=O)N[C@@H](CCCCN)C(=O)N[C@@H](Cc1c[nH]cn1)C(=O)N[C@@H](CCCCN)C(=O)N[C@H](C(=O)N[C@H](C(=O)N[C@@H](CC(=O)O)C(=O)O)[C@@H](C)O)[C@@H](C)CC)[C@@H](C)CC
B3: Compound 28 (peptide)
peptide: B1 peptide with E28L
HELM: PEPTIDE1{H.[Aib].E.G.S.F.T.S.E.L.A.T.I.L.D.K.Q.A.A.R.D.F.I.A.W.L.I.L.H.K.I.T.D}|PEPTIDE2{[O=C(O)CCCCCCCCCCCCCCCCC(=O)[*:2]].[gGlu]}$PEPTIDE1,PEPTIDE2,16:R3-2:R2$$$V2.0
SMILES: CC[C@H](C)[C@H](NC(=O)[C@H](Cc1ccccc1)NC(=O)[C@H](CC(=O)O)NC(=O)[C@H](CCCNC(=N)N)NC(=O)[C@H](C)NC(=O)[C@H](C)NC(=O)[C@H](CCC(N)=O)NC(=O)[C@H](CCCCNC(=O)CC[C@H](NC(=O)CCCCCCCCCCCCCCCCC(=O)O)C(=O)O)NC(=O)[C@H](CC(=O)O)NC(=O)[C@H](CC(C)C)NC(=O)[C@@H](NC(=O)[C@@H](NC(=O)[C@H](C)NC(=O)[C@H](CC(C)C)NC(=O)[C@H](CCC(=O)O)NC(=O)[C@H](CO)NC(=O)[C@@H](NC(=O)[C@H](Cc1ccccc1)NC(=O)[C@H](CO)NC(=O)CNC(=O)[C@H](CCC(=O)O)NC(=O)C(C)(C)NC(=O)[C@@H](N)Cc1c[nH]cn1)[C@@H](C)O)[C@@H](C)O)[C@@H](C)CC)C(=O)N[C@@H](C)C(=O)N[C@@H](Cc1c[nH]c2ccccc12)C(=O)N[C@@H](CC(C)C)C(=O)N[C@H](C(=O)N[C@@H](CC(C)C)C(=O)N[C@@H](Cc1c[nH]cn1)C(=O)N[C@@H](CCCCN)C(=O)N[C@H](C(=O)N[C@H](C(=O)N[C@@H](CC(=O)O)C(=O)O)[C@@H](C)O)[C@@H](C)CC)[C@@H](C)CC
B4: Compound 25 (peptide)
peptide: B1 peptide with S5T
HELM: PEPTIDE1{H.[Aib].E.G.T.F.T.S.E.L.A.T.I.L.D.K.Q.A.A.R.D.F.I.A.W.L.I.E.H.K.I.T.D}|PEPTIDE2{[O=C(O)CCCCCCCCCCCCCCCCC(=O)[*:2]].[gGlu]}$PEPTIDE1,PEPTIDE2,16:R3-2:R2$$$V2.0
SMILES: CC[C@H](C)[C@H](NC(=O)[C@H](Cc1ccccc1)NC(=O)[C@H](CC(=O)O)NC(=O)[C@H](CCCNC(=N)N)NC(=O)[C@H](C)NC(=O)[C@H](C)NC(=O)[C@H](CCC(N)=O)NC(=O)[C@H](CCCCNC(=O)CC[C@H](NC(=O)CCCCCCCCCCCCCCCCC(=O)O)C(=O)O)NC(=O)[C@H](CC(=O)O)NC(=O)[C@H](CC(C)C)NC(=O)[C@@H](NC(=O)[C@@H](NC(=O)[C@H](C)NC(=O)[C@H](CC(C)C)NC(=O)[C@H](CCC(=O)O)NC(=O)[C@H](CO)NC(=O)[C@@H](NC(=O)[C@H](Cc1ccccc1)NC(=O)[C@@H](NC(=O)CNC(=O)[C@H](CCC(=O)O)NC(=O)C(C)(C)NC(=O)[C@@H](N)Cc1c[nH]cn1)[C@@H](C)O)[C@@H](C)O)[C@@H](C)O)[C@@H](C)CC)C(=O)N[C@@H](C)C(=O)N[C@@H](Cc1c[nH]c2ccccc12)C(=O)N[C@@H](CC(C)C)C(=O)N[C@H](C(=O)N[C@@H](CCC(=O)O)C(=O)N[C@@H](Cc1c[nH]cn1)C(=O)N[C@@H](CCCCN)C(=O)N[C@H](C(=O)N[C@H](C(=O)N[C@@H](CC(=O)O)C(=O)O)[C@@H](C)O)[C@@H](C)CC)[C@@H](C)CC
B5: Compound 27 (peptide)
peptide: B1 peptide with E28Y
HELM: PEPTIDE1{H.[Aib].E.G.S.F.T.S.E.L.A.T.I.L.D.K.Q.A.A.R.D.F.I.A.W.L.I.Y.H.K.I.T.D}|PEPTIDE2{[O=C(O)CCCCCCCCCCCCCCCCC(=O)[*:2]].[gGlu]}$PEPTIDE1,PEPTIDE2,16:R3-2:R2$$$V2.0
SMILES: CC[C@H](C)[C@H](NC(=O)[C@H](Cc1ccccc1)NC(=O)[C@H](CC(=O)O)NC(=O)[C@H](CCCNC(=N)N)NC(=O)[C@H](C)NC(=O)[C@H](C)NC(=O)[C@H](CCC(N)=O)NC(=O)[C@H](CCCCNC(=O)CC[C@H](NC(=O)CCCCCCCCCCCCCCCCC(=O)O)C(=O)O)NC(=O)[C@H](CC(=O)O)NC(=O)[C@H](CC(C)C)NC(=O)[C@@H](NC(=O)[C@@H](NC(=O)[C@H](C)NC(=O)[C@H](CC(C)C)NC(=O)[C@H](CCC(=O)O)NC(=O)[C@H](CO)NC(=O)[C@@H](NC(=O)[C@H](Cc1ccccc1)NC(=O)[C@H](CO)NC(=O)CNC(=O)[C@H](CCC(=O)O)NC(=O)C(C)(C)NC(=O)[C@@H](N)Cc1c[nH]cn1)[C@@H](C)O)[C@@H](C)O)[C@@H](C)CC)C(=O)N[C@@H](C)C(=O)N[C@@H](Cc1c[nH]c2ccccc12)C(=O)N[C@@H](CC(C)C)C(=O)N[C@H](C(=O)N[C@@H](Cc1ccc(O)cc1)C(=O)N[C@@H](Cc1c[nH]cn1)C(=O)N[C@@H](CCCCN)C(=O)N[C@H](C(=O)N[C@H](C(=O)N[C@@H](CC(=O)O)C(=O)O)[C@@H](C)O)[C@@H](C)CC)[C@@H](C)CC
B6: Compound 26 (peptide)
peptide: B1 peptide with E28H
HELM: PEPTIDE1{H.[Aib].E.G.S.F.T.S.E.L.A.T.I.L.D.K.Q.A.A.R.D.F.I.A.W.L.I.H.H.K.I.T.D}|PEPTIDE2{[O=C(O)CCCCCCCCCCCCCCCCC(=O)[*:2]].[gGlu]}$PEPTIDE1,PEPTIDE2,16:R3-2:R2$$$V2.0
SMILES: CC[C@H](C)[C@H](NC(=O)[C@H](Cc1ccccc1)NC(=O)[C@H](CC(=O)O)NC(=O)[C@H](CCCNC(=N)N)NC(=O)[C@H](C)NC(=O)[C@H](C)NC(=O)[C@H](CCC(N)=O)NC(=O)[C@H](CCCCNC(=O)CC[C@H](NC(=O)CCCCCCCCCCCCCCCCC(=O)O)C(=O)O)NC(=O)[C@H](CC(=O)O)NC(=O)[C@H](CC(C)C)NC(=O)[C@@H](NC(=O)[C@@H](NC(=O)[C@H](C)NC(=O)[C@H](CC(C)C)NC(=O)[C@H](CCC(=O)O)NC(=O)[C@H](CO)NC(=O)[C@@H](NC(=O)[C@H](Cc1ccccc1)NC(=O)[C@H](CO)NC(=O)CNC(=O)[C@H](CCC(=O)O)NC(=O)C(C)(C)NC(=O)[C@@H](N)Cc1c[nH]cn1)[C@@H](C)O)[C@@H](C)O)[C@@H](C)CC)C(=O)N[C@@H](C)C(=O)N[C@@H](Cc1c[nH]c2ccccc12)C(=O)N[C@@H](CC(C)C)C(=O)N[C@H](C(=O)N[C@@H](Cc1c[nH]cn1)C(=O)N[C@@H](Cc1c[nH]cn1)C(=O)N[C@@H](CCCCN)C(=O)N[C@H](C(=O)N[C@H](C(=O)N[C@@H](CC(=O)O)C(=O)O)[C@@H](C)O)[C@@H](C)CC)[C@@H](C)CC

Each binder was assayed against T1, human GLP-2 receptor (hGLP2-R) (human, UniProt O95838 1-553) (assay: cell-based or functional assay).
T1 sequence (looked up): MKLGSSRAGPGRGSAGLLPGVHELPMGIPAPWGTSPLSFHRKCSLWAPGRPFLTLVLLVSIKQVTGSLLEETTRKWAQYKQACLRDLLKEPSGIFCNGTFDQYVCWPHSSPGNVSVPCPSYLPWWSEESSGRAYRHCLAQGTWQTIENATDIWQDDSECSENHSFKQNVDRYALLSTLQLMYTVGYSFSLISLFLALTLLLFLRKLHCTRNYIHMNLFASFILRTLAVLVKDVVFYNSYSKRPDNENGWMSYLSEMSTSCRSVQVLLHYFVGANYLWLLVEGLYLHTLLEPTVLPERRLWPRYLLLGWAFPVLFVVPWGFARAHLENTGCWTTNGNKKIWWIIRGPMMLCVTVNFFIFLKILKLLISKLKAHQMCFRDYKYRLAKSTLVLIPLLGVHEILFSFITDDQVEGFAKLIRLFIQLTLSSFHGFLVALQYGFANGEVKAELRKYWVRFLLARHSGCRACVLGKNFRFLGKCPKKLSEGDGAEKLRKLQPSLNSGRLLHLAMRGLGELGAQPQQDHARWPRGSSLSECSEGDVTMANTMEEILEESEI

Binder | EC50 GLP-2 (nM); cAMP response [nM]
B1 | 0.17
B2 | 0.29
B3 | 0.51
B4 | 0.33
B5 | 1.1
B6 | 0.59

Each binder was assayed against human glucagon-like peptide 1 receptor (GLP-1 R) (human, UniProt P43220 24-463) (assay: cell-based or functional assay).

Binder | EC50 GLP-1 (nM); cAMP response [nM]
B1 | 0.21
B2 | 0.31
B3 | 0.36
B4 | 0.094
B5 | 0.45
B6 | 0.29
